{
  "source": "patent US20230174626A1",
  "about": "(GlaxoSmithKline, published 2023)",
  "binders": {"B1": {"name": "humanized 26B6 mAb (antibody, human IgG1, kappa, V domains shown)", "VH": "EVQLVESGGGLVKPGGSLKLSCAASGFTITDYYIYWLRQTPEKKLEWVAAISDGGRYTDYPDSVKGRFTMSSDNAKTNLYLQMGSLQSDDTGMYYCARWASYGYHWYFDVWGAGTTVTVSS", "VL": "DIQMTQTTSSLSASLGDRVTISCSASQDISNYINWYQQKRDGTVKLLIYDSSSLHSGVPSRFSGSGSGTDYSLTISNLEPEDFATYFCQQYSNLPPTFGGGTNLEIKR"}, "B2": {"name": "humanized 23C2 mAb (antibody, human IgG1, kappa, V domains shown)", "VH": "DVQLQESGPGLVKPSQSLSLTCSVTGYSIKSGYYWNWIRQFPGNKLEWMGYISYGGDFTYNPSLKNRISITRDTSKNQFFLKLNSVTTEDTATYFCVREPNWESYFDIWGAGTTVTVSS", "VL": "DIQMTQSPASLSASVGETVTITCRASDNIYSYLTWYHQKQGKSPHLLVYNAKTLPEGVPLRFSGTGSGTQFSLKINSLQPEDFGIYFCLHDYGFPRTFGGGTILEVKR"}, "B3": {"name": "humanized 2C7 mAb (antibody, human IgG1, kappa, V domains shown)", "VH": "EVQLQQSGPELEKPGASVKISCKASGYSFTGYNMNWVKQSNGKSLEWIGNIDPYFGGTSYNQKFKGKATLTVDKSSSTAYMELKSLTSEDSAVYYCARHYGYFPWFAYWGQGTLVTVSA", "VL": "DIVLTQSPASLAVSLGQRATISCRASESVDSSGNSFMHWYQQKPGQPPKLLIYRASNLESGIPARFSGSGSRTDFTLTINPVGADDVATYYCQQSNEDPWTFGGGTKLEIKR"}},
  "key": {"[1]": {"molecular_target": "ULs (UL128, UL130, UL131A of the HCMV Pentamer) on TB40 virus (Human Cytomegalovirus (HCMV), TB40 virus)", "assay": "cell-based or functional assay"}, "[2]": {"molecular_target": "HCMV glycoprotein H (gH) on TB40 virus (Human Cytomegalovirus (HCMV), TB40 virus)", "assay": "cell-based or functional assay"}},
  "data": [
    {"binder": "B1", "values": [
      {"measurement": "IC50 (µg/ml), HCMV TB40 neutralization on ARPE-19 epithelial cells", "setting": "[1]", "value": 0.00407, "unit": "µg/mL"},
      {"measurement": "IC50 (µg/ml), HCMV TB40 neutralization on MRC-5 fibroblasts", "setting": "[1]", "value": "> 10", "unit": "µg/mL"}
    ]},
    {"binder": "B2", "values": [
      {"measurement": "IC50 (µg/ml), HCMV TB40 neutralization on ARPE-19 epithelial cells", "setting": "[1]", "value": 0.0031, "unit": "µg/mL"},
      {"measurement": "IC50 (µg/ml), HCMV TB40 neutralization on MRC-5 fibroblasts", "setting": "[1]", "value": "> 10", "unit": "µg/mL"}
    ]},
    {"binder": "B3", "values": [
      {"measurement": "IC50 (µg/ml), HCMV TB40 neutralization on ARPE-19 epithelial cells", "setting": "[2]", "value": 0.0915, "unit": "µg/mL"},
      {"measurement": "IC50 (µg/ml), HCMV TB40 neutralization on MRC-5 fibroblasts", "setting": "[2]", "value": 0.53, "unit": "µg/mL"}
    ]}
  ]
}
